Source: the supplement of paper PMC10126150
± gives the standard deviation of the averaged measurements.

Tested on: ATP
Assay: switch fluorescence ratio, 500 uM ATP over buffer (Cy3 cluster intensity, sum of 5 cycles each) (fold (ratio)); higher = stronger signal-on switching upon ATP binding; sequences stand for … in TCGTCGGCAGCGTCAGATGTGTATAAGAGACAGTTTTTTTTTTTTTTTTTTTTTTTTT…TC
Details: aptamer strand: ATP DNA aptamer (quencher-CACCTGGGGGAGTATTGCGGAGGAAGG + anchor), 100 nM annealed; ATP concentration: 500 uM
Summary of the method: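 Imaging in selection buffer was followed by imaging after 15 min with 500 uM ATP at 22 °C, for Cy3-labelled switching-strand clusters annealed to 100 nM quencher-labelled ATP aptamer on a modified Illumina MiSeq flow-cell. Five of these buffer/ATP cycles ran, separated by NaOH stripping and re-annealing. The fluorescence ratio per cluster is summed target-cycle over summed buffer-cycle Cy3 intensity, averaged per switch-domain sequence; clusters outside 100-1000 RFU were removed.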
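Also: ATP exposure 15 min at 22 °C before imaging.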

Row | Sequence | switch fluorescence ratio
1 | CTGTTATTTT | 0.974 ± 0.03
2 | CTGTTCTGGG | 1.003 ± 0.0063
3 | CTGTTGGGAA | 1.04 ± 0.091
4 | CTGTTGTTTG | 0.9784 ± 0.0016
5 | CTGTTTAATG | 0.9871 ± 0.0038
6 | CTGTTTCGAC | 1.02 ± 0.051
7 | CTGTTTCGGG | 0.978 ± 0.029
8 | CTGTTTGAGA | 1.02 ± 0.018
9 | CTGTTTGCCT | 0.983 ± 0.021
10 | CTGTTTGGGT | 0.9759 ± 0.0026
11 | CTGTTTTGTG | 1.01 ± 0.049
12 | CTGTTTTTGA | 0.96 ± 0.061
13 | CTTAAAAGTA | 0.972 ± 0.018
14 | CTTAAAATGC | 1.66 ± 0.46
15 | CTTAATGGGG | 0.973 ± 0.024
16 | CTTACCTGAG | 1.31 ± 0.045
17 | CTTAGAAGAT | 0.983 ± 0.044
18 | CTTAGCCTCA | 0.981 ± 0.034
19 | CTTAGCCTTT | 0.983 ± 0.016
20 | CTTAGGGAGA | 1 ± 0.035
21 | CTTAGGGGGA | 1 ± 0.012
22 | CTTAGGTTTG | 1 ± 0.018
23 | CTTAGTGAAA | 0.988 ± 0.029
24 | CTTATAGCTT | 0.987 ± 0.033
25 | CTTATCATGT | 0.981 ± 0.034

Row | Sequence | switch fluorescence ratio
26 | CTTATCGGCA | 1.0825 ± 0.00095
27 | CTTATCTCTG | 1.05 ± 0.019
28 | CTTATTATGG | 0.975 ± 0.021
29 | CTTCAAAGTA | 1.03 ± 0.026
30 | CTTCATTACT | 1.08 ± 0.017
31 | CTTCCACGGT | 1.21 ± 0.12
32 | CTTCCGCTTG | 1.58 ± 0.021
33 | CTTCGGACCG | 1.03 ± 0.096
34 | CTTCGGAGGT | 1.028 ± 0.0037
35 | CTTCGGTGTT | 0.9967 ± 0.0085
36 | CTTCGTGACA | 1.042 ± 0.0027
37 | CTTCGTGATG | 1.1044 ± 0.00079
38 | CTTCTGAGGT | 1.74 ± 0.95
39 | CTTCTGTGGC | 1.071 ± 0.0073
40 | CTTCTTGTGG | 0.9925 ± 0.009
41 | CTTCTTGTTT | 1.008 ± 0.0037
42 | CTTCTTTGTG | 0.996 ± 0.018
43 | CTTGAAGTTA | 1 ± 0.011
44 | CTTGAATGTC | 1.05 ± 0.054
45 | CTTGAATGTG | 1 ± 0.013
46 | CTTGACAGAG | 0.9835 ± 0.0074
47 | CTTGAGTGTT | 0.996 ± 0.011
48 | CTTGATAACG | 1.024 ± 0.0033
49 | CTTGATGTAA | 1 ± 0.064
50 | CTTGATTAGG | 0.9981 ± 0.0037

Row | Sequence | switch fluorescence ratio
51 | CTTGATTTTT | 1 ± 0.016
52 | CTTGCATGGC | 1.077 ± 0.0092
53 | CTTGCGGGGC | 1.03 ± 0.051
54 | CTTGCGTGTC | 1.03 ± 0.038
55 | CTTGCTTGAG | 1.003 ± 0.0007
56 | CTTGGAGGGT | 1.04 ± 0.086
57 | CTTGGAGTGG | 0.978 ± 0.024
58 | CTTGGCAGGG | 0.99 ± 0.02
59 | CTTGGGATTT | 0.98 ± 0.013
60 | CTTGGGGATT | 0.99 ± 0.044
61 | CTTGGGGCAT | 1.025 ± 0.008
62 | CTTGGGGGCT | 1.002 ± 0.0097
63 | CTTGGTTACG | 0.9738 ± 0.0093
64 | CTTGGTTCGA | 0.978 ± 0.026
65 | CTTGGTTTCT | 1.032 ± 0.0093
66 | CTTGTATTAC | 1.16 ± 0.024
67 | CTTGTCATCG | 0.993 ± 0.037
68 | CTTGTGGCTA | 0.956 ± 0.046
69 | CTTGTGTTCT | 0.9964 ± 0.004
70 | CTTGTTCTTA | 0.996 ± 0.024
71 | CTTTAAGTTT | 0.9967 ± 0.0093
72 | CTTTATAATC | 0.986 ± 0.026
73 | CTTTATGGGG | 0.974 ± 0.029
74 | CTTTATTGGA | 0.971 ± 0.013
75 | CTTTCAAGGT | 1.006 ± 0.0032

Row | Sequence | switch fluorescence ratio
76 | CTTTCCCTTT | 1.01 ± 0.03
77 | CTTTCGGGCT | 1.01 ± 0.026
78 | CTTTCTCAA | 1.32 ± 0.44
79 | CTTTGAAGGA | 0.992 ± 0.03
80 | CTTTGATTGG | 0.99 ± 0.04
81 | CTTTGATTTT | 1.01 ± 0.019
82 | CTTTGCATTA | 1.7035 ± 0.00023
83 | CTTTGCCTGG | 0.98 ± 0.026
84 | CTTTGGAGGT | 0.985 ± 0.016
85 | CTTTGGCTTT | 0.967 ± 0.014
86 | CTTTGGGGCT | 0.999 ± 0.038
87 | CTTTGGGTGG | 1.03 ± 0.058
88 | CTTTGTAGT | 1.013 ± 0.01
89 | CTTTGTATGG | 1 ± 0.017
90 | CTTTGTATGT | 0.982 ± 0.029
91 | CTTTGTCTGA | 1.022 ± 0.0085
92 | CTTTGTTACG | 1.048 ± 0.0015
93 | CTTTTACCAA | 0.992 ± 0.046
94 | CTTTTAGAGA | 1.02 ± 0.015
95 | CTTTTAGGGA | 0.989 ± 0.028
96 | CTTTTAGGTG | 1.11 ± 0.12
97 | CTTTTAGTGG | 0.9714 ± 0.0059
98 | CTTTTAGTTT | 0.9963 ± 0.0034
99 | CTTTTCTTAA | 0.996 ± 0.0011
100 | CTTTTGGATT | 0.998 ± 0.022
